Publication PMC3311221 (Nature cell biology, 2011)

B1: polyhistidine-tagged full length TFG-1 (natural protein, C. elegans, UniProt Q9U1W1 1-486, looked up)
chain: MVHSNGAITSTILKARHADVVRKTSLHHANDLTLIDLVLNVQRLLALPSDANFVLKYKDEEGDLVTLAEDSDLLLALHTSGATLDVTVVVDSRAREAVHDVQKQVEQIKLDVGKLLGALSALDVAQIAEQSNTSVANLSAPKQSHHDNIVFQKSFEAAPPSPVPSEKAELPATIQPSVHEQFNHRPAHVEEEIPLENHYAPPPHQQIPDDLNTSFSSQPPPPIEQFGAIPPPNATIPSFPTSNAASPPVQEFAPPPPQQQQQQFQAPPPPMASHSSISSTPVQQQGFAPPQQFGGPPPSGPPSEYGGYAPPQQQQQQFGAPPPQGAPQQGFGAPPQGPPQGGPPQGSFGAPPPQQFHAPSPQSFGGPPPPVSSAPGNFAPPPQSGPPGAFAPPPSAFGAPQGPGGPGGYGPPPPGGPGAPGSYGPPQGGPGGFGPPPPGGPGAYGPPPTGFPPVGAPPPGAAGAPGGNPFARGPSATGYRQSPYQQ
B2: polyhistidine-tagged TFG-1 amino-terminus (amino acids 1-195) (domain or fragment, C. elegans, UniProt Q9U1W1 1-195, looked up)
chain: MVHSNGAITSTILKARHADVVRKTSLHHANDLTLIDLVLNVQRLLALPSDANFVLKYKDEEGDLVTLAEDSDLLLALHTSGATLDVTVVVDSRAREAVHDVQKQVEQIKLDVGKLLGALSALDVAQIAEQSNTSVANLSAPKQSHHDNIVFQKSFEAAPPSPVPSEKAELPATIQPSVHEQFNHRPAHVEEEIPL

Biological target: the molecule itself
Experiment: SEC + other: glycerol gradient sedimentation

Protein	stoichiometry N
B1	6
B2	8
